Here are results for 19 molecules from US10005829B2, “Synthetic linear apelin mimetics for the treatment of heart failure” (priority 2012, dated 2018).

[ ]: non-standard residue; d: D form. Pro(trans-4-Ph) = O=C(O)[C@@H]1C[C@@H](c2ccccc2)CN1; Cha = N[C@@H](CC1CCCCC1)C(=O)O; pGlu = O=C1CC[C@@H](C(=O)O)N1; dNle = CCCC[C@@H](N)C(=O)O; dNva = CCC[C@@H](N)C(=O)O; Aib = CC(C)(N)C(=O)O

The experiment addresses T1, APJ receptor (human, UniProt P35414 1-380).
T1 sequence (looked up): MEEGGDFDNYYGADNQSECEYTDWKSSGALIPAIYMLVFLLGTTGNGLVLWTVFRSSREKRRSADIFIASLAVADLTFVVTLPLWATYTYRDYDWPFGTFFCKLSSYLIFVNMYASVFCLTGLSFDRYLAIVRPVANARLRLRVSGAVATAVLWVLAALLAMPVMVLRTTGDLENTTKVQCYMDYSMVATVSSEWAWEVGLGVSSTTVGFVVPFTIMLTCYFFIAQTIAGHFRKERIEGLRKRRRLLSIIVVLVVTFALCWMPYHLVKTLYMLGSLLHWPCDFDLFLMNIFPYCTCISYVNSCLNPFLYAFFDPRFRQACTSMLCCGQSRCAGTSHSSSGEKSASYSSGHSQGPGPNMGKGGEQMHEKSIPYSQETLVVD
The experiment in a line: cell-based or functional assay.

B1: pE-R-P-R-L-c(tBu)-H-K-G-P-nle-a-f-OH (peptide)
peptide: [pGlu]RPRL[dCys(tBu)]HKGP[dNle][dA][dF]-OH
B1: the “hAPJ Ca^2+ Flux EC50” value was found to be 693 nM.

B2: pE-R-(trans-4-PhP)-R-L-a-H-K-G-P-nle-a-f-OH (peptide)
peptide: [pGlu]R[Pro(trans-4-Ph)]RL[dA]HKGP[dNle][dA][dF]-OH
Turning to B2, the “hAPJ Ca^2+ Flux EC50” value was 9.9 nM.

B3: pE-R-P-R-L-a-H-E-G-P-nle-a-f-OH (peptide)
peptide: [pGlu]RPRL[dA]HEGP[dNle][dA][dF]-OH
SMILES: CCCC[C@@H](NC(=O)[C@@H]1CCCN1C(=O)CNC(=O)[C@H](CCC(=O)O)NC(=O)[C@H](Cc1c[nH]cn1)NC(=O)[C@@H](C)NC(=O)[C@H](CC(C)C)NC(=O)[C@H](CCCNC(=N)N)NC(=O)[C@@H]1CCCN1C(=O)[C@H](CCCNC(=N)N)NC(=O)[C@@H]1CCC(=O)N1)C(=O)N[C@H](C)C(=O)N[C@H](Cc1ccccc1)C(=O)O
Take B3: the “hAPJ Ca^2+ Flux EC50” value worked out at 200 nM.

B4: pE-R-P-R-L-S-h-K-G-P-nle-a-f-OH (peptide)
peptide: [pGlu]RPRLS[dH]KGP[dNle][dA][dF]-OH
SMILES: CCCC[C@@H](NC(=O)[C@@H]1CCCN1C(=O)CNC(=O)[C@H](CCCCN)NC(=O)[C@@H](Cc1c[nH]cn1)NC(=O)[C@H](CO)NC(=O)[C@H](CC(C)C)NC(=O)[C@H](CCCNC(=N)N)NC(=O)[C@@H]1CCCN1C(=O)[C@H](CCCNC(=N)N)NC(=O)[C@@H]1CCC(=O)N1)C(=O)N[C@H](C)C(=O)N[C@H](Cc1ccccc1)C(=O)O
As to B4, the “hAPJ Ca^2+ Flux EC50” value turned out to be 6.8 nM.

B5: H-R-P-R-L-a-H-K-G-P-nle-f-OH (peptide)
peptide: H-RPRL[dA]HKGP[dNle][dF]-OH
SMILES: CCCC[C@@H](NC(=O)[C@@H]1CCCN1C(=O)CNC(=O)[C@H](CCCCN)NC(=O)[C@H](Cc1c[nH]cn1)NC(=O)[C@@H](C)NC(=O)[C@H](CC(C)C)NC(=O)[C@H](CCCNC(=N)N)NC(=O)[C@@H]1CCCN1C(=O)[C@@H](N)CCCNC(=N)N)C(=O)N[C@H](Cc1ccccc1)C(=O)O
Consider B5, for which the “hAPJ Ca^2+ Flux EC50” value was 1.4 nM.

B6: pE-R-P-R-L-a-H-K-G-P-nva-a-f-OH (peptide)
peptide: [pGlu]RPRL[dA]HKGP[dNva][dA][dF]-OH
SMILES: CCC[C@@H](NC(=O)[C@@H]1CCCN1C(=O)CNC(=O)[C@H](CCCCN)NC(=O)[C@H](Cc1c[nH]cn1)NC(=O)[C@@H](C)NC(=O)[C@H](CC(C)C)NC(=O)[C@H](CCCNC(=N)N)NC(=O)[C@@H]1CCCN1C(=O)[C@H](CCCNC(=N)N)NC(=O)[C@@H]1CCC(=O)N1)C(=O)N[C@H](C)C(=O)N[C@H](Cc1ccccc1)C(=O)O
Turning to B6, the “hAPJ Ca^2+ Flux EC50” value turned out to be 8.7 nM.

B7: pE-R-P-R-L-nva-H-K-G-P-nle-a-f-OH (peptide)
peptide: [pGlu]RPRL[dNva]HKGP[dNle][dA][dF]-OH
SMILES: CCCC[C@@H](NC(=O)[C@@H]1CCCN1C(=O)CNC(=O)[C@H](CCCCN)NC(=O)[C@H](Cc1c[nH]cn1)NC(=O)[C@@H](CCC)NC(=O)[C@H](CC(C)C)NC(=O)[C@H](CCCNC(=N)N)NC(=O)[C@@H]1CCCN1C(=O)[C@H](CCCNC(=N)N)NC(=O)[C@@H]1CCC(=O)N1)C(=O)N[C@H](C)C(=O)N[C@H](Cc1ccccc1)C(=O)O
Turning to B7, the “hAPJ Ca^2+ Flux EC50” value was found to be 19.5 nM.

B8: pE-R-P-R-L-a-H-K-G-P-nle-nva-f-OH (peptide)
peptide: [pGlu]RPRL[dA]HKGP[dNle][dNva][dF]-OH
SMILES: CCCC[C@@H](NC(=O)[C@@H]1CCCN1C(=O)CNC(=O)[C@H](CCCCN)NC(=O)[C@H](Cc1c[nH]cn1)NC(=O)[C@@H](C)NC(=O)[C@H](CC(C)C)NC(=O)[C@H](CCCNC(=N)N)NC(=O)[C@@H]1CCCN1C(=O)[C@H](CCCNC(=N)N)NC(=O)[C@@H]1CCC(=O)N1)C(=O)N[C@H](CCC)C(=O)N[C@H](Cc1ccccc1)C(=O)O
Take B8: the “hAPJ Ca^2+ Flux EC50” value stood at 0.9 nM.

B9: pE-R-P-R-L-v-H-K-G-P-nle-a-f-OH (peptide)
peptide: [pGlu]RPRL[dV]HKGP[dNle][dA][dF]-OH
SMILES: CCCC[C@@H](NC(=O)[C@@H]1CCCN1C(=O)CNC(=O)[C@H](CCCCN)NC(=O)[C@H](Cc1c[nH]cn1)NC(=O)[C@H](NC(=O)[C@H](CC(C)C)NC(=O)[C@H](CCCNC(=N)N)NC(=O)[C@@H]1CCCN1C(=O)[C@H](CCCNC(=N)N)NC(=O)[C@@H]1CCC(=O)N1)C(C)C)C(=O)N[C@H](C)C(=O)N[C@H](Cc1ccccc1)C(=O)O
As for B9, the “hAPJ Ca^2+ Flux EC50” value is 7.9 nM.

B10: pE-R-P-R-L-a-H-K-G-P-nle-f-OH (peptide)
peptide: ERPRLAHKGPLF
modifications: pE at 1; D-Ala at 6; D-Nle at 11; D-Phe at 12
For B10, the “hAPJ Ca^2+ Flux EC50” value came to 3.1 nM.

B11: pE-R-P-R-L-S-a-K-G-P-nle-a-f-OH (peptide)
peptide: [pGlu]RPRLS[dA]KGP[dNle][dA][dF]-OH
SMILES: CCCC[C@@H](NC(=O)[C@@H]1CCCN1C(=O)CNC(=O)[C@H](CCCCN)NC(=O)[C@@H](C)NC(=O)[C@H](CO)NC(=O)[C@H](CC(C)C)NC(=O)[C@H](CCCNC(=N)N)NC(=O)[C@@H]1CCCN1C(=O)[C@H](CCCNC(=N)N)NC(=O)[C@@H]1CCC(=O)N1)C(=O)N[C@H](C)C(=O)N[C@H](Cc1ccccc1)C(=O)O
B11: the “hAPJ Ca^2+ Flux EC50” value stood at 8.5 nM.

B12: pE-R-P-R-Cha-nva-H-K-G-P-nle-a-f-OH (peptide)
peptide: [pGlu]RPR[Cha][dNva]HKGP[dNle][dA][dF]-OH
SMILES: CCCC[C@@H](NC(=O)[C@@H]1CCCN1C(=O)CNC(=O)[C@H](CCCCN)NC(=O)[C@H](Cc1c[nH]cn1)NC(=O)[C@@H](CCC)NC(=O)[C@H](CC1CCCCC1)NC(=O)[C@H](CCCNC(=N)N)NC(=O)[C@@H]1CCCN1C(=O)[C@H](CCCNC(=N)N)NC(=O)[C@@H]1CCC(=O)N1)C(=O)N[C@H](C)C(=O)N[C@H](Cc1ccccc1)C(=O)O
Consider B12, for which the “hAPJ Ca^2+ Flux EC50” value came out at 9.4 nM.

B13: pE-R-P-R-L-a-H-K-D-P-nle-a-f-OH (peptide)
peptide: [pGlu]RPRL[dA]HKDP[dNle][dA][dF]-OH
SMILES: CCCC[C@@H](NC(=O)[C@@H]1CCCN1C(=O)[C@H](CC(=O)O)NC(=O)[C@H](CCCCN)NC(=O)[C@H](Cc1c[nH]cn1)NC(=O)[C@@H](C)NC(=O)[C@H](CC(C)C)NC(=O)[C@H](CCCNC(=N)N)NC(=O)[C@@H]1CCCN1C(=O)[C@H](CCCNC(=N)N)NC(=O)[C@@H]1CCC(=O)N1)C(=O)N[C@H](C)C(=O)N[C@H](Cc1ccccc1)C(=O)O
As for B13, the “hAPJ Ca^2+ Flux EC50” value amounted to 95.9 nM.

B14: pE-R-P-R-L-a-H-Q-G-P-nle-a-f-OH (peptide)
peptide: [pGlu]RPRL[dA]HQGP[dNle][dA][dF]-OH
SMILES: CCCC[C@@H](NC(=O)[C@@H]1CCCN1C(=O)CNC(=O)[C@H](CCC(N)=O)NC(=O)[C@H](Cc1c[nH]cn1)NC(=O)[C@@H](C)NC(=O)[C@H](CC(C)C)NC(=O)[C@H](CCCNC(=N)N)NC(=O)[C@@H]1CCCN1C(=O)[C@H](CCCNC(=N)N)NC(=O)[C@@H]1CCC(=O)N1)C(=O)N[C@H](C)C(=O)N[C@H](Cc1ccccc1)C(=O)O
On to B14, for which the “hAPJ Ca^2+ Flux EC50” value amounted to 7.4 nM.

B15: pE-R-P-R-L-S-f-K-G-P-nle-a-f-OH (peptide)
peptide: [pGlu]RPRLS[dF]KGP[dNle][dA][dF]-OH
SMILES: CCCC[C@@H](NC(=O)[C@@H]1CCCN1C(=O)CNC(=O)[C@H](CCCCN)NC(=O)[C@@H](Cc1ccccc1)NC(=O)[C@H](CO)NC(=O)[C@H](CC(C)C)NC(=O)[C@H](CCCNC(=N)N)NC(=O)[C@@H]1CCCN1C(=O)[C@H](CCCNC(=N)N)NC(=O)[C@@H]1CCC(=O)N1)C(=O)N[C@H](C)C(=O)N[C@H](Cc1ccccc1)C(=O)O
Regarding B15, the “hAPJ Ca^2+ Flux EC50” value turned out to be 72.8 nM.

B16: pE-R-P-R-L-a-H-K-G-P-f-a-f-OH (peptide)
peptide: [pGlu]RPRL[dA]HKGP[dF][dA][dF]-OH
SMILES: CC(C)C[C@H](NC(=O)[C@H](CCCNC(=N)N)NC(=O)[C@@H]1CCCN1C(=O)[C@H](CCCNC(=N)N)NC(=O)[C@@H]1CCC(=O)N1)C(=O)N[C@H](C)C(=O)N[C@@H](Cc1c[nH]cn1)C(=O)N[C@@H](CCCCN)C(=O)NCC(=O)N1CCC[C@H]1C(=O)N[C@H](Cc1ccccc1)C(=O)N[C@H](C)C(=O)N[C@H](Cc1ccccc1)C(=O)O
With B16, the “hAPJ Ca^2+ Flux EC50” value was found to be 1.5 nM.

B17: pE-R-P-R-L-A-h-K-G-P-nle-a-f-OH (peptide)
peptide: [pGlu]RPRLA[dH]KGP[dNle][dA][dF]-OH
In the case of B17, the “hAPJ Ca^2+ Flux EC50” value amounted to 55.1 nM.

B18: pE-R-P-R-L-S-Aib-k-G-P-nle-a-f-OH (peptide)
peptide: [pGlu]RPRLS[Aib][dK]GP[dNle][dA][dF]-OH
SMILES: CCCC[C@@H](NC(=O)[C@@H]1CCCN1C(=O)CNC(=O)[C@@H](CCCCN)NC(=O)C(C)(C)NC(=O)[C@H](CO)NC(=O)[C@H](CC(C)C)NC(=O)[C@H](CCCNC(=N)N)NC(=O)[C@@H]1CCCN1C(=O)[C@H](CCCNC(=N)N)NC(=O)[C@@H]1CCC(=O)N1)C(=O)N[C@H](C)C(=O)N[C@H](Cc1ccccc1)C(=O)O
For B18, the “hAPJ Ca^2+ Flux EC50” value is 79.9 nM.

B19: pE-R-P-R-L-d-H-K-G-P-nle-a-f-OH (peptide)
peptide: [pGlu]RPRL[dD]HKGP[dNle][dA][dF]-OH
SMILES: CCCC[C@@H](NC(=O)[C@@H]1CCCN1C(=O)CNC(=O)[C@H](CCCCN)NC(=O)[C@H](Cc1c[nH]cn1)NC(=O)[C@@H](CC(=O)O)NC(=O)[C@H](CC(C)C)NC(=O)[C@H](CCCNC(=N)N)NC(=O)[C@@H]1CCCN1C(=O)[C@H](CCCNC(=N)N)NC(=O)[C@@H]1CCC(=O)N1)C(=O)N[C@H](C)C(=O)N[C@H](Cc1ccccc1)C(=O)O
For B19, the “hAPJ Ca^2+ Flux EC50” value stood at 7.7 nM.
